Data: US20240342283A1 (SHANDONG BOAN BIOTECHNOLOGY, published 2024)

Experiments:
[1] = biological target: T1, Biotinylated Human ROR1 Protein, His, Avitag (Acro biosystem) (human, UniProt Q01973 30-403, biotinylated (Avitag)); assay: flow cytometry of CAR-electroporated primary T cells stained with Biotinylated Human ROR1 Protein, His, Avitag
T1 construct: Bought reagent; not shown: His tag and Avitag
From the text: To screen for CAR activity, the above-obtained T cells were electroporated with PiggyBac plasmids (shown in FIG. 3) with the CAR cassette as well as PiggyBac Transposon mRNA. CAR expression in primary T cells was confirmed by flow cytometry using Biotinylated Human ROR1 Protein, His, Avitag (Acro biosystem) (FIG. 18A).

[2] = biological target: T2, Receptor tyrosine kinase-like orphan receptor 1 (ROR1) on ROR1-positive cells (human, UniProt Q01973 30-937); assay: cell-based or functional assay
[3] = biological target: T2, Receptor tyrosine kinase-like orphan …; assay: cell-based or functional assay; remark: listed apart in the source

T2 sequence (Q01973 30-937): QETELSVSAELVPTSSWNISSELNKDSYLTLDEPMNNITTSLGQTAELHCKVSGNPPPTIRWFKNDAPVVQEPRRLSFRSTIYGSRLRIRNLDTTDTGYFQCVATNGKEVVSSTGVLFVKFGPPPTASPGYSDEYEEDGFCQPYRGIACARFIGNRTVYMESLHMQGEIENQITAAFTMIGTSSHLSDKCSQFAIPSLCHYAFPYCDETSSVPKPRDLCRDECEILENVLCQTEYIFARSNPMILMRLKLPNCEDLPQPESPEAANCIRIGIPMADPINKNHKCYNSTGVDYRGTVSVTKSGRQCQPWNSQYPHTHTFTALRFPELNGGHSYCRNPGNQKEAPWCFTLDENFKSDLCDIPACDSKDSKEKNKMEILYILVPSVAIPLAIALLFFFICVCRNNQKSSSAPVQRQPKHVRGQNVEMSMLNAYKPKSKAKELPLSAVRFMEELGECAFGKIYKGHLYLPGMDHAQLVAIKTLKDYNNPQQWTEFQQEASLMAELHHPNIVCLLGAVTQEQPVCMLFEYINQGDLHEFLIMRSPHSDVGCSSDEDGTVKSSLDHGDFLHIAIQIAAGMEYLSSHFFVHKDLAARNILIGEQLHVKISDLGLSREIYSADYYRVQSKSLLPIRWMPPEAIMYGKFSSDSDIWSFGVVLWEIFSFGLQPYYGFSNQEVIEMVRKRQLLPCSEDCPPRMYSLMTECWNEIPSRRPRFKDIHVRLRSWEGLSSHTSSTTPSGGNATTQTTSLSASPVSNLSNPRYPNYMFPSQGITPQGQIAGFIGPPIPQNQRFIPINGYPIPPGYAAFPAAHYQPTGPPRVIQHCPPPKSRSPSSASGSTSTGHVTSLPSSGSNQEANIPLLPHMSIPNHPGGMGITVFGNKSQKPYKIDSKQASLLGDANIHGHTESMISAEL
T1 sequence (Q01973 30-403 limits assumed): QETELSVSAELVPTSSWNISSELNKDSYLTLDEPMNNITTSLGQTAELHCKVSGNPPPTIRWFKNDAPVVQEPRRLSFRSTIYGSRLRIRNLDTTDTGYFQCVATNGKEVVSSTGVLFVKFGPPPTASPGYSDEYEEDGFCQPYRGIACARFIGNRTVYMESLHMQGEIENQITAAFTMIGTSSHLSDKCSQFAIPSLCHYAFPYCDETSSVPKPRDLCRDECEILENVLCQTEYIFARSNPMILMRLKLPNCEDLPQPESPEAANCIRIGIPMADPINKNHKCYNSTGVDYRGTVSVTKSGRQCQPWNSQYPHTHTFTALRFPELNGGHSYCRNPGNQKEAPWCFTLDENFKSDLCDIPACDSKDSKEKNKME

| Binder | CAR Positive rate [1] | Specific lysis (%) of MDA-MB-231, Effector to Target ratio 1:1 [2] | Specific lysis (%) of MDA-MB-231, Effector to Target ratio 3:1 [2] | IFN-gamma cytokine release (pg/mL), co-culture with MDA-MB-231, Effector to Target ratio 1:1 [3] | IFN-gamma cytokine release (pg/mL), co-culture with MDA-MB-231, Effector to Target ratio 3:1 [3] |
| --- | --- | --- | --- | --- | --- |
| RC005c (other, Chimeric antigen receptor on electroporated Jurkat cells or primary T cells; also called RC005c (hu709 VH4VL2); hu709 VH4VL2 CAR) CAR: EVQLVQSGAEVKKPGATVKISCKVSGYTFTDYEMHWVKQAPGKGLEWIGAIDPETGGTAYNQKFKGRATITADKSSSTAYMELSSLRSEDSAVYYCTPYYGYAMDYWGQGTLVTVSSGGGGSGGGGSGGGGSDIQLTQSPSFLSASVGDRVTITCKASQNVGTNVAWYQQKPGKAPKLLIYWASTRHTGVPSRFSGSGSGTEFTLTISSLQPEDFATYFCQQYSSYPLTFGQGTKLEIKTTTPAPRPPTPAPTIASQPLSLRPEACRPAAGGAVHTRGLDFACDIYIWAPLAGTCGVLLLSLVITLYCKRGRKKLLYIFKQPFMRPVQTTQEEDGCSCRFPEEEEGGCELRVKFSRSADAPAYKQGQNQLYNELNLGRREEYDVLDKRRGRDPEMGGKPRRKNPQEGLYNELQKDKMAEAYSEIGMKGERRRGKGHDGLYQGLSTATKDTYDALHMQALPPR | 28% | 10.6% | 32.6% | 14600 pg/mL | 36800 pg/mL |
| R12 ROR1 CAR (other, Benchmark chimeric antigen receptor on electroporated primary T cells; also called R12 CAR; Benchmark Control R12) CAR: QEQKVESGGRLVTPGGSLTLSCKASGFDFSAYYMSWVRQAPGKGLEWIATIYPSSGKTYYATWVNGRFTISSDNAQNTVDLQMNSLTAADRATYFCARDSYADDGALFNIWGPGTLVTISSGGGGSGGGGSGGGGSELVLTQSPSVSAALGSPAKITCTLSSAHKTDTIDWYQQLQGEAPRYLMQVQSDGSYTKRPGVPDRFSGSSSGADRYLIIPSVQADDEADYYCGADYIGGYVFGGGTQLTVTGTTTPAPRPPTPAPTIASQPLSLRPEACRPAAGGAVHTRGLDFACDIYIWAPLAGTCGVLLLSLVITLYCKRGRKKLLYIFKQPFMRPVQTTQEEDGCSCRFPEEEEGGCELRVKFSRSADAPAYKQGQNQLYNELNLGRREEYDVLDKRRGRDPEMGGKPRRKNPQEGLYNELQKDKMAEAYSEIGMKGERRRGKGHDGLYQGLSTATKDTYDALHMQALPPR | 30.7% | 12.6% | 28.9% | 20500 pg/mL | 40600 pg/mL |
